Consider 4 molecules from article PMC5748987 (The Journal of Cell Biology, 2018).

To fix the notation:
B1: GST-xAurA(127–407) (domain or fragment)
chain: KEEGKKKQWCLEDFEIGRPLGKGKFGNVYLARERESKFILALKVLFKSQLEKAGVEHQLRREVEIQSHLRHPNILRLYGYFHDASRVYLILDYAPGGELFRELQKCTRFDDQRSAMYIKQLAEALLYCHSKKVIHRDIKPENLLLGSNGELKIADFGWSVHAPSSRRTTLCGTLDYLPPEMIEGRMHDETVDLWSLGVLCYEFLVGKPPFETDTHQETYRRISKVEFQYPPYVSEEARDLVSKLLKHNPNHRLPLKGVLEHPWIIKNSQLKKKDEPLPGAQ
B2: GST-xBuGZ(8–58) (domain or fragment)
chain: not shown
B3: GST-xAurA (full length, amino acids 1–407) (enzyme)
chain: MERAVKENHKPSNVKIFHPMTEGAKRIPVNQPQSTQFRPPGTAVSAQRILGPSNVPQRVLAQAQKPILSSQKPTTQIPLRPATQGHQSSKPQGPNENRNPQQTSHSSTPNVEKKGSTDQGKTSAVPKEEGKKKQWCLEDFEIGRPLGKGKFGNVYLARERESKFILALKVLFKSQLEKAGVEHQLRREVEIQSHLRHPNILRLYGYFHDASRVYLILDYAPGGELFRELQKCTRFDDQRSAMYIKQLAEALLYCHSKKVIHRDIKPENLLLGSNGELKIADFGWSVHAPSSRRTTLCGTLDYLPPEMIEGRMHDETVDLWSLGVLCYEFLVGKPPFETDTHQETYRRISKVEFQYPPYVSEEARDLVSKLLKHNPNHRLPLKGVLEHPWIIKNSQLKKKDEPLPGAQ
B4: xAurA (cleaved from mCherry-xAurA) (enzyme)
chain: B3 chain

Assay [1] concerns the target T1, YFP-xBuGZ (full length) (Xenopus laevis, UniProt Q7ZXV8 1-452). The assay can be described thus: pull-down.
Assay [2] deals with B4. The experiment in a line: pull-down.
The target of assay [3] is T1, YFP-xBuGZ (full length). The experiment in a line: co-sedimentation.
Another assay addresses YFP-xBuGZΔN7 (Xenopus laevis, UniProt Q7ZXV8 8-452). The experiment in a line: pull-down.

T1 sequence (Q7ZXV8 whole entry): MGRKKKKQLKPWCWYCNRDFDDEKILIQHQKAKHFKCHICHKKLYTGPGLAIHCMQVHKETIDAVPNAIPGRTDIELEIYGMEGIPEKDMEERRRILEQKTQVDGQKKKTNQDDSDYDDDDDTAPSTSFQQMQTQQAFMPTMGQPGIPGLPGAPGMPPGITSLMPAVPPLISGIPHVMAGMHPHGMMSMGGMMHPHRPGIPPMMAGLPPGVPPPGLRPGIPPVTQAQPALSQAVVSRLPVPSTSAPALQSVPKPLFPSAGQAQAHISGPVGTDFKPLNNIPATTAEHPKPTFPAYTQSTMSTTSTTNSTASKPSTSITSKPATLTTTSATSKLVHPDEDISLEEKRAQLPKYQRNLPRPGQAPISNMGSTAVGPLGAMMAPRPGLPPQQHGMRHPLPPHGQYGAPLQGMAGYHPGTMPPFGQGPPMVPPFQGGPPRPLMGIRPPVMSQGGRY
YFP-xBuGZΔN7, sequence (Q7ZXV8 8-452, stated change not applied): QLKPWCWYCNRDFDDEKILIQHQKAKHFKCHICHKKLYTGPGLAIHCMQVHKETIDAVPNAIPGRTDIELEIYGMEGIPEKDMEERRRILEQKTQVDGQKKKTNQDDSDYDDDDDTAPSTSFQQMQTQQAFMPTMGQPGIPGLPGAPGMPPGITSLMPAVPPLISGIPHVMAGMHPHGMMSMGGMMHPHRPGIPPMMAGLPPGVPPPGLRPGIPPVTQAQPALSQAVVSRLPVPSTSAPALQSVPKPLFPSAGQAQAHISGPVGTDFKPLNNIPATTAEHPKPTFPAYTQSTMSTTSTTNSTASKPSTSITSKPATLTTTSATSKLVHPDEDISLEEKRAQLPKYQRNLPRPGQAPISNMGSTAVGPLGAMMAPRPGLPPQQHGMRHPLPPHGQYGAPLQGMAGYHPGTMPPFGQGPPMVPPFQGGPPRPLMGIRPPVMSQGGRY

B1: the binding result in the assay with YFP-xBuGZ (full length) [1] is recorded as “binds”. For B2, the binding result in assay [2] is given as “binds”. On to B3, for which the binding result with YFP-xBuGZ (full length) [1] is reported as “binds”. As for B4, the binding result with YFP-xBuGZ (full length) [3] and in the assay with YFP-xBuGZΔN7 was “binds” each time.
